According to patent publication US8338123B2, “Food production process” (DSM IP Assets B.V., priority 2002, dated 2012):

Experiments:
humans = conditions: life-long exposure, daily uptake 1.6 ug acrylamide/kg; cited from earlier work
[1] = substrate: NC(=O)C[C@H](N)C(=O)O; assay: purified protein, by the assay type; conditions: other: substrate L-asparagine, pH 5.5, 37° C.

Molecule | cancer risk (humans) | Km [1] [µM] | Vmax [1] [µmol/min/mg]
C=CC(N)=O [acrylamide] | 7*10^−3 | – | –
Aspergillus niger asparaginase ASPA01, SEQ ID NO: 3 (Aspergillus niger CBS 513.88) (protein) SPLLYSRTTNETFVFTNANGLNFTQMNTTLPNVTIFATGGTIAGSDSSSTATTGYTSGAVGVLSLIDAVPSMLDVANVAGVQVANVGSEDITSDILISMSKKLNRVVCEDPTMAGAVITHGTDTLEETAFFLDATVNCGKPIVIVGAMRPSTAISADGPFNLLEAVTVAASTSARDRGAMVVMNDRIASAYYVTKTNANTMDTFKAMEMGYLGEMISNTPFFFYPPVKPTGKVAFDITNVTEIPRVDILFSYEDMHNDTLYNAISSGAQGIVIAGAGAGGVTTSFNEAIEDVINRLEIPVVQSMRTVNGEVPLSDVSSDTATHIASGYLNPQKSRILLGLLLSQGKNITEIADVFALGTDA | – | 2400 ± 300 | 1100
